Target: His-tagged Gins51 wild type (Thermococcus kodakaraensis)
Assay: SPR

## GAN mutant F55A/L57A (enzyme)
  Kd: 0.23 µM
